Our source for the IFN-γ+TNF+ CD8+ T cells (expanded with pool J) after restimulation with peptide-pulsed C1R.B*35:01; donors responding, IFN-γ+TNF+ CD8+ T cells (expanded with pool H) after restimulation with peptide-pulsed C1R.B*07:02; donors responding and IFN-γ+TNF+ CD8+ T cells (expanded with pool I) after restimulation with peptide-pulsed C1R.B*08:01; donors responding values is PMC11059233.

Test [1] concerns the target HLA-B*35:01 expressed in C1R cells (C1R.B*35:01) (human | human (endogenous in C1R)).
Test [2] deals with HLA-B*07:02 expressed in C1R cells (C1R.B*07:02) (human | human (endogenous in C1R)).
The target of test [3] is HLA-B*08:01 expressed in C1R cells (C1R.B*08:01) (human | human (endogenous in C1R)).

As for influenza B virus HA_(231-239) peptide, the IFN-γ+TNF+ CD8+ T cells (expanded with pool J) after restimulation with peptide-pulsed C1R.B*35:01; donors responding in test [1] is 3 of 6 donors.
Take influenza B virus HA_(255-263) peptide: the IFN-γ+TNF+ CD8+ T cells (expanded with pool H) after restimulation with peptide-pulsed C1R.B*07:02; donors responding in test [2] is 2 of 10 donors.
As to influenza B virus NP_(30-38) peptide, in test [2], the IFN-γ+TNF+ CD8+ T cells (expanded with pool H) after restimulation with peptide-pulsed C1R.B*07:02; donors responding was 7 of 10 donors. In test [3], the IFN-γ+TNF+ CD8+ T cells (expanded with pool I) after restimulation with peptide-pulsed C1R.B*08:01; donors responding is 5 of 9 donors.
With influenza B virus NP_(92-99) peptide, the IFN-γ+TNF+ CD8+ T cells (expanded with pool I) after restimulation with peptide-pulsed C1R.B*08:01; donors responding in test [3] was 6 of 9 donors.
As to influenza B virus NP_(233-244) peptide, the IFN-γ+TNF+ CD8+ T cells (expanded with pool H) after restimulation with peptide-pulsed C1R.B*07:02; donors responding in test [2] was 9 of 10 donors.
For influenza B virus NP_(479-487) peptide, the IFN-γ+TNF+ CD8+ T cells (expanded with pool I) after restimulation with peptide-pulsed C1R.B*08:01; donors responding in test [3] was 4 of 9 donors.
Take influenza B virus NS1_(196-206) peptide: in test [2], the IFN-γ+TNF+ CD8+ T cells (expanded with pool H) after restimulation with peptide-pulsed C1R.B*07:02; donors responding was 6 of 10 donors.
For the substance influenza B virus NS1_(260-268) peptide, in test [1], the IFN-γ+TNF+ CD8+ T cells (expanded with pool J) after restimulation with peptide-pulsed C1R.B*35:01; donors responding is 5 of 6 donors.
